Target: δ-toxin (secreted by S. aureus MW2 and its ΔPSMα strain) (Staphylococcus aureus MW2)
Experiment: AUC + SEC-MALS + native MS + cross-linking

δ-toxin (secreted by S. aureus MW2 and its ΔPSMα strain) (peptide)
stoichiometry N: 8

Reference: PMC8158037
